# Data taken from article PMC12307502.
# Target: AβO (amyloid-beta oligomer) (UniProt P05067)
# Test: fluorescence quenching titration (Cy5/BHQ3), LangmuirEXT1 fit
# Details: 25 °C; buffer not stated for the aptamer-only binding assays (AβO detection assay: 50 mM Tris-HCl pH 8, 10 mM MgCl2)
# UniProt P05067, sequence (P05067 whole entry): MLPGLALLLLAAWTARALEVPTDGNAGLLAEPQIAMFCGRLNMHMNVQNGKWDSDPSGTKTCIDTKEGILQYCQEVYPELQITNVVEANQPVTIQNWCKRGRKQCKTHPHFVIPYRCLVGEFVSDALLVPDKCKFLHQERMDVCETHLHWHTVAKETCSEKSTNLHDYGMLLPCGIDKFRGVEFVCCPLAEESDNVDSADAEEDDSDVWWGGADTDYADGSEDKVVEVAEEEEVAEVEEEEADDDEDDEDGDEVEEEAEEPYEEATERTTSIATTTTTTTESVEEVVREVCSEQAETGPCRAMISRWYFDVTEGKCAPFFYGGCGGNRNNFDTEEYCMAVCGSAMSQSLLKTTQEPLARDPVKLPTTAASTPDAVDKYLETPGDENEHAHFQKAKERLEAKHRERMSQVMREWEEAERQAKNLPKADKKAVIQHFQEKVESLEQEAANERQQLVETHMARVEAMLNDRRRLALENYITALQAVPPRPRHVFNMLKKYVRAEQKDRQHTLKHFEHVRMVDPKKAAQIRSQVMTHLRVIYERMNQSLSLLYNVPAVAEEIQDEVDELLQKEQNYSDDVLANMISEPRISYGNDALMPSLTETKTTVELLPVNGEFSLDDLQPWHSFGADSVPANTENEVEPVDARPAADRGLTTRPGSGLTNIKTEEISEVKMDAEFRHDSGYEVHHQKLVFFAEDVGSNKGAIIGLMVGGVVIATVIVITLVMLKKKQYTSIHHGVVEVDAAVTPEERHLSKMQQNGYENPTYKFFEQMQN
sequence,measurement,value
TGACCAACGCCTGTGGTGTTGGGGCGGGTGCGGTTGGTCA [A4],Kd,7.54 nM
